Holding throughout (test): EMSA
Data set [1] has as its target T1, *VLF-1 (HAHIS-VLF-1, very late expression factor 1) (Autographa californica multiple capsid …, UniProt Q06687 1-379).
T1 sequence: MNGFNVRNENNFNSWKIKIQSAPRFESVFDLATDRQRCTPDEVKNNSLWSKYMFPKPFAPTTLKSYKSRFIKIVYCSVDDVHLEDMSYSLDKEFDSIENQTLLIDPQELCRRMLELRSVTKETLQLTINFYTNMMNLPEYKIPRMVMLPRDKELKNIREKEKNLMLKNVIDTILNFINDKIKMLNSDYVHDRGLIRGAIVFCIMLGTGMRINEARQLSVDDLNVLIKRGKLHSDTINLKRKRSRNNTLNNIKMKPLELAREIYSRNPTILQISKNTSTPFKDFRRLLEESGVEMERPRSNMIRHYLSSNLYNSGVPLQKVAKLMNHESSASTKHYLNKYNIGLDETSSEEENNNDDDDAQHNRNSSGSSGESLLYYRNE

Data set [2] addresses T1, *VLF-1 (HAHIS-VLF-1, very late …). This is another data set of the same source.
The target is the same in data set [3]. The source holds these as a separate data set.
Data set [4] shares this target. The source holds these as a separate data set.

Where two headings read alike, the source gives them in different places.

B1: substrate VII, hairpin hr DNA (v-hr1/v-hr3) (structured_DNA)
DNA 1: GGGGTTTGTTTTTCAAAACTAAACTCGCTTTACGAGTAGAATTCTACTTGTAACGCACAATCAAGGGATGATGTCAGGGG
DNA 2: CCCCTGACATCATCCCTTGATTGTGAGTTTAGTTTTGAAAAACAAACCCC
In the case of B1, the binding result in data set [1] was “binds”.

B2: substrate I, linear single-stranded DNA (4X12-2) (ssDNA)
DNA: TGGGTGAACCTGCAGGTGGGCAAAGATGTCCTAGCAATGTAATCGTCAAGCTTTATGCCGTT
For the molecule B2, the binding result in data set [2] is listed as “no binding”.

B3: substrate II, linear double-stranded DNA (4X12-2/4X12-5) (dsDNA)
DNA 1: B2 DNA
DNA 2: AACGGCATAAAGCTTGACGATTACATTGCTAGGACATCTTTGCCCACCTGCAGGTTCACCCA
As for B3, in data set [2], the binding result was “no binding”.

B4: substrate V, cruciform (4X12-2/4X12-1/4X12-3/4X12-4a) (structured_DNA)
DNA 1: B2 DNA
DNA 2: GACGCTGCCGAATTCTACCAGTGCCTTGCTAGGACATCTTTGCCCACCTGCAGGTTCACCC
DNA 3: CAACGGCATAAAGCTTGACGATTACATTGCTAGGACATGCTGTCTAGAGGATCCGACTATCGA
DNA 4: ATCGATAGTCGGATCCTCTAGACAGCATGTCCTAGCAAGGCACTGGTAGAATTCGGCAGCGT
B4: in data set [3], the binding result is listed as “binds”.

B5: substrate IV, three-way junction (4X12-2/4X12-1/4X12-3) (structured_DNA)
DNA 1: B2 DNA
DNA 2: B4 DNA 2
DNA 3: B4 DNA 3
With B5, the binding result in data set [4] is given as “binds”.

These data come from publication PMC130038.
